# Data published in patent publication US20160362487A1 (Regeneron, published 2016).
# Where a chain is given by its changes, count along the chain named. Names and notes keep the numbering of the source.
# T1: cynomolgus monkey IL-33 expressed with a C-terminal hexahistidine tag (cynomolgus monkey)
# T1 construct: also called MfIL-33-6His; Mf-IL-33-6His
# T1 chain: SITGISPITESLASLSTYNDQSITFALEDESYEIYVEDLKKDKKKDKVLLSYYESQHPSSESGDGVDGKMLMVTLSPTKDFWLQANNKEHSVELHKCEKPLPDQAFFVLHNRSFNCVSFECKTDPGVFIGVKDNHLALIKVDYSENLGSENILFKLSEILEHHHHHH
# T2: human IL-33 (R&D Systems, #3625-IL-010/CF) (human, UniProt O95760 112-270)
# T2 construct: Commercial recombinant protein; also called hIL-33; interleukin-33
# T2 sequence (looked up): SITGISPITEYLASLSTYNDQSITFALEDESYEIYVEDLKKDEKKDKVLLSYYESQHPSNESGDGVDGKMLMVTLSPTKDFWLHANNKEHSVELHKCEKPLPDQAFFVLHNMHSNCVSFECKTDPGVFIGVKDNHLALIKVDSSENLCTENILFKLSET
# B1: H4H9629P (antibody, human IgG4, V domains shown)
# VH: EVQLVESGGGLVQPGGSLRLSCAASGFTFRSFAMSWVRQAPGKGLELVSDLRTSGGSTYYADSVKGRLTISRDNSKNTLYLQMNSLRAEDTAVYYCAKSHYSTSWFGGFDYWGQGTLVTVSS
# VL: DIQMTQSPSSVSASVGDRVTITCRASQGFSSWLAWYQQKPGKAPKLLIYAASSLQSGVPSRFSGSGSGTDFTLTITNLQPEDFATYYCQQANSFPLTFGGGTKVEIK
# notes: Human IgG4 Fc (H4H)
# B2: H4H9666P (antibody, human IgG4, V domains shown)
# VH: QVQLVQSGAEVKKPGASVKVSCKASGYTFTSYGISWVRQAPGQGLEWMGWIRAYNGYTNYAQKFQGRVTMTTDTSTNTAYMELRTLNSDDTAVYYCARDRYSGSFHGNFDYWGQGTLVTVSS
# VL: B1 VL with F29I, S30F, L46V, S53N, Q55E, T76S, N77S, F94L
# notes: Human IgG4 Fc (H4H)
# B3: H1M9559N (antibody, mouse IgG1, V domains shown)
# VH: QVQLVESGGGVVQPGRSLRLSCAASGFTFSSYGMHWVRQAPGKGLEWVAVIWYDGRNKYYTDSVKGRFTISRDNSKNTLYLQMDSLRAEDTAVYYCARERYISSYYGGFDPWGQGALVTVSS
# VL: B1 VL with F29I, L46V, T76S, N77S, L96F, G100P, V104L, E105D
# notes: Human variable domains, mouse IgG1 Fc (H1M)
# B4: H4H9672P (antibody, human IgG4, V domains shown)
# VH: EVQLVESGGGLVQPGGSLRLSCAASGFTLRSYVMYWVRQGPGKGLEGVSGISGSSGGTYYTDSVKGRFTISRDNSKNTLFLQMNSLRAEDTAVYFCARSVYSTTWYGGFQHWGQGTLVTVSS
# VL: B1 VL with A13V, G28V, F29I, Q38L, T76S, N77G, T85V, A91T
# notes: Human IgG4 Fc (H4H)
# B5: H4H9676P (antibody, human IgG4, V domains shown)
# VH: EVQLVESGGGLVQPGGSLRLSCSASGFTFSSYAMNWVRQAPGKGLEWVTAISGSGGGTYYADSVKGRFTISRDNSKNSLFLQLNSLRAEDTAVYYCAKQTYTSSWYGGFDIWGQGTMVTVSS
# VL: B1 VL with K39I, S53R, S63R, T76S, N77S
# notes: Human IgG4 Fc (H4H)
# B6: H4H9633P (antibody, human IgG4, V domains shown)
# VH: EVQLVESGGGLVQPGGSLRLSCAASGFTFSSYVMSWVRQAPGKGLEWVSSISGNGGSTNYADSVKGRFTISRDNSKNTLFLEMNSLRAEDTAVYYCAKSLGTTTTFLGFDYWGQGTLVTVSS
# VL: B1 VL with F29I, D70Y, T76S, N77S
# notes: Human IgG4 Fc (H4H)
# B7: H1M9568N (antibody, mouse IgG1, V domains shown)
# VH: QVLLVQSGAEVKKPGATVKVSCKASGSTFTGYYMHWVRQAPGQGLEWMGWINPNNGGTNYAQKFQGRVTMTRDTSISTAYMELSRLRSDDTAVYYCARELRYNWKSWGQGTLVTVSS
# VL: EIVLTQSPGTLSLSPGERVTLSCRASQSVGRPYLAWYQQIPGQAPRLLIYGASSRATDIPDRFSGNGSGTDFTLTISRLEPEDFAVYYCQQYDNSPYTFGQGTRLEIK
# notes: as for B3
# B8: H4H9640P (antibody, human IgG4, V domains shown)
# VH: QVQLQESGPGLVKPSETLSLTCTVSGGSISSYYWSWIRQPPGKGLELIGYIYYSGSTNYNPSLKSRVTISVDTSKNHFSLKLSSVTAADTAVYYCARSQYTSSWYGSFDIWGQGTMVTVSS
# VL: DIQMTQSPSSVSASVGDRVTITCRASQGISTWLAWFQQKPGKAPKLLIYAASTLQGGVPSRFSGSGSGPEFTLTISSLQPEDFATYYCQQANSFPWTFGQGTKVEIK
# notes: Human IgG4 Fc (H4H)
# B9: H4H9670P (antibody, V domains shown)
# VH: EVQLVESGGGLVQPGGSLRLSCAASGFTLSSYAMSWVRQAPGKGLEWVSAISGSGGSTYYADSVKGRFTISRDNSKNSLYLQLNSLRAEDTAVYYCAKTLYTTSWYGGFQHWGQGTLVTVSS
# VL: DIQMTQSPSSVSASIGDRVTITCRASQGISSWLAWYQQKPGKVPKLLIYAASSLQSGFPSRFSGSGSGTDFTLTISSLQPEDFATYYCQQTHSFPWTVGQGTKVEIK
# notes: Human IgG4 Fc (H4H)
# B10: H1M9565N (antibody, mouse IgG1, V domains shown)
# VH: QVTLKESGPVLVKPTESLTLTCSVSGFSLSNVRMGVSWIRQSPGKALEWLAHIFSNDEKSYTTSLKTRLTISKDTSRSQVVLTMTDMDPGDTATYYCARIRNLAFNYWGQGTLVTVSS
# VL: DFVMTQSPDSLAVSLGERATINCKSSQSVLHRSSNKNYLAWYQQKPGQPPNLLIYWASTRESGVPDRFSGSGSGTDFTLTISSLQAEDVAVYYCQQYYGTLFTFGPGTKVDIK
# notes: as for B3
# Target: T1, cynomolgus monkey IL-33 expressed with …
# Experiment: SPR 25C, pH6.0 chase, mAb captured
# Method: (§1) Equilibrium dissociation constants (KD values) for IL-33 binding to purified anti-IL-33 monoclonal antibodies were determined using a real-time surface plasmon resonance biosensor using a Biacore 4000 instrument. The Biacore sensor surface was first derivatized by amine coupling with either a polyclonal rabbit anti-mouse antibody (GE, # BR-1008-38) or with a monoclonal mouse anti-human Fc antibody (GE, # BR-1008-39) to capture anti-IL-33 monoclonal antibodies expressed with mouse or with human IgG4 constant regions, respectively. All Biacore binding studies were performed in 0.01M ADA pH 7.4, 0.15M NaCl, 3 mM EDTA, and 0.05% v/v Surfactant Tween-20 (ABS-ET running buffer). […] Association of either hIL-33 or MfIL-33-6His to the captured monoclonal antibody was monitored for 4 minutes and their dissociation in ABS-ET running buffer was monitored for 10 minutes. The effect of reduced pH on the binding of each anti-IL-33 antibody to either hIL-33 or MfIL-33-6His was studied using an in-line pH chase assay format in 0.01M ADA pH 6.0, 0.15M NaCl, 3 mM EDTA, and 0.05% v/v Surfactant Tween-20 (ABS-ET pH6 buffer). To achieve this, association of either hIL-33 or MfIL-33-6His to the captured monoclonal antibody was monitored for 4 minutes in ABS-ET running buffer. Following a 30 second dissociation of either hIL-33 or MfIL-33-6His in ABS-ET running buffer, ABS-ET pH6 buffer was injected for 3 minutes, and the analyte dissociation under the low-pH conditions was measured. All the binding kinetic experiments were performed at both 25° C. and 37° C. Kinetic association (kₐ) and dissociation (kd) constants were determined by fitting the real-time sensorgrams to a 1:1 binding model using Scrubber 2.0c curve fitting software. Binding dissociation equilibrium constants (KD) and dissociative half-lives (t½) were calculated from the kinetic rate constants as: […]
koff,t½,t½ Ratio (pH 7.4/pH 6.0),Binder
0.0358 s⁻¹,0.3 min,2.7,B1
0.00809 s⁻¹,1.4 min,2.3,B2
0.00152 s⁻¹,8 min,1.2,B3
0.00267 s⁻¹,4 min,0.7,B4
0.00145 s⁻¹,8 min,0.4,B5
0.00287 s⁻¹,4 min,0.3,B6
0.000302 s⁻¹,38 min,1.2,B7
0.000501 s⁻¹,23 min,0.4,B8
0.000393 s⁻¹,29 min,0.2,B9
0.000143 s⁻¹,81 min,2,B10

# Target: T2, human IL-33 (R&D Systems, …)
# Experiment: SPR 25C, pH6.0 chase, mAb captured
# Method: as §1
koff,t½,t½ Ratio (pH 7.4/pH 6.0),Binder
0.00128 s⁻¹,9 min,5.7,B1
0.00134 s⁻¹,9 min,4.8,B2
0.000187 s⁻¹,62 min,0.7,B3
0.00141 s⁻¹,8 min,4,B4
0.00121 s⁻¹,10 min,3.5,B5
0.00081 s⁻¹,14 min,2.9,B6
0.000178 s⁻¹,65 min,1.4,B7
0.000657 s⁻¹,18 min,2.8,B8
0.000825 s⁻¹,14 min,2.9,B9

# Target: T1, cynomolgus monkey IL-33 expressed with …
# Experiment: SPR 37C, pH6.0 chase, mAb captured
# Method: as §1
koff,t½,t½ Ratio (pH 7.4/pH 6.0),Binder
0.00307 s⁻¹,4 min,0.9,B3
0.00224 s⁻¹,5 min,1.3,B7
0.00226 s⁻¹,5 min,0.5,B8
0.00165 s⁻¹,7 min,0.3,B9
0.000228 s⁻¹,51 min,1.1,B10

# Target: T2, human IL-33 (R&D Systems, …)
# Experiment: SPR 37C, pH6.0 chase, mAb captured
# Method: as §1
koff,t½,t½ Ratio (pH 7.4/pH 6.0),Binder
0.00582 s⁻¹,2 min,9,B1
0.0068 s⁻¹,2 min,8.8,B2
0.000992 s⁻¹,12 min,1,B3
0.00541 s⁻¹,2 min,4.7,B4
0.00524 s⁻¹,2 min,4.1,B5
0.0024 s⁻¹,5 min,3.5,B6
0.0011 s⁻¹,10 min,1.1,B7
0.00265 s⁻¹,4 min,4.6,B8
0.00383 s⁻¹,3 min,4.9,B9

# Target: T2, human IL-33 (R&D Systems, …)
# Experiment: cell-based or functional assay
"IC50, blocking of IFN-γ release from human PBMC induced by 260 pM hIL-33, donor #603486","IC50, blocking of IFN-γ release from human PBMC induced by 260 pM hIL-33, donor #603487",Binder
8.15e-10 M,5.21e-09 M,B1
4.42e-09 M,1.22e-08 M,B8
